Measurements taken from article PMC2654920, “Borrelia recurrentis Employs a Novel Multifunctional Surface Protein with Anti-Complement, Anti-Opsonic and Invasive Potential to Escape Innate Immunity” (PLoS ONE, 2009).

How the values were obtained:
[1] = biological target: T1, human complement factor H (human, UniProt P08603 19-1231); assay: ELISA; competition inhibition assay: HcpA (2 µg/ml) coated; constant CFH (3 µg/ml in the methods, 2 µg/ml in the results) with PLG 0.001-100 µg/ml, or constant PLG (10 µg/ml) with CFH 0.001-100 µg/ml; conditions: both partners purified
T1 construct: complement factor H, human, 20 short consensus repeats (SCRs); purified protein or as present in normal human serum; purified human factor H of Calbiochem is the only one named; also called CFH; source: bought: Calbiochem (purified human factor H); also in normal human serum

recombinant CFHR-1 = biological target: T2, recombinant CFHR-1 (human, UniProt Q03591 19-330); assay: far-Western, overlay or dot blot; ligand affinity blot: purified recombinant HcpA separated by SDS-PAGE, on nitrocellulose strips, incubated with recombinant CFHL-1, CFH deletion constructs or recombinant CFHR-1; anti-CFH immune serum, mAb JHD7 or JHD8; conditions: both partners purified
T2 construct: complement factor H-related protein 1, human, recombinant; also called CFH-related protein 1
T2 sequence: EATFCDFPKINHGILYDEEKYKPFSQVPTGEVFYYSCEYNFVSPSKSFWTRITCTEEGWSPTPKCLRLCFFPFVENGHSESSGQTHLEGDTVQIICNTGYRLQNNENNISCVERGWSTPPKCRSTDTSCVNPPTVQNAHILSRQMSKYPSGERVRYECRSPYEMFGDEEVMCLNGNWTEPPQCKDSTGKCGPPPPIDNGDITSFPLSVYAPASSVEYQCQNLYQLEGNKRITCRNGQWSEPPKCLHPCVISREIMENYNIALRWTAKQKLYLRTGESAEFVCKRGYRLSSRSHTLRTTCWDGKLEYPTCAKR

B1: recombinant full-length HcpA (residues 18 to 175) of B. recurrentis A1 (domain or fragment)
chain: LLSKNANLQPKTLETLESNIDDGQKQALAFFQESLQDNKHLDALKQAQSALLKDIKDKPQKTLNFKYNKTKLEQLFRKLGNDKTKQFLKNLHVTIKFINNGSFQSFSSANFNDLDTLEKKQERAINSIKEELYVNYYLYTNELVDLDYFFYRAMNYLS
notes: HcpA, surface lipoprotein of B. recurrentis A1, residues 18-175, lacking the hydrophobic leader peptide; cloned into pQE-30Xa with primers BrBam and BrSal; also called intact HcpA; source: E. coli JM109, purified as recommended by the manufacturer (Qiagen); not shown: His6, N-terminal, kept
- binding result [1]: binds
- binding result (recombinant CFHR-1): binds
